In patent publication US11013783B2, “Anti-inflammatory peptides and methods for treating inflammatory diseases” (INSTITUT NATIONAL DE LA RECHERCHE AGRONOMIQUE (INRA), priority 2012, dated 2021):
Residue numbers refer to the chain shown, from its start.

Assays:
[1] = tested on: IL-8 production by HT29-MTX cells stimulated by TNFα; assay: IL-8 production of HT29-MTX cells incubated with peptides and stimulated by TNFα; format: cell-based; conditions: FIG. 4
Protocol: The inventors then incubated mucus secreting intestinal epithelial HT29-MTX cells with two peptide fragments obtained from the protein ZP05614546.1.
The inventors measured the IL-8 production (as a marker of inflammation) after stimulation of HT29-MTX cells incubated or not with said peptides and stimulated by TNFα.

colonic inflammation = assay: Colonic inflammation model in mice treated daily orally with L. lactis expressing the protein; format: in vivo, C57B16 mice; conditions: M21/2 data not shown
Protocol: C57B16 mice (6-8 weeks old) are kept at room temperature, under 12 h light/dark cycles and having free access to food and water, except the day before the induction of colitis, where they are fasted for 12 h.
Colonic inflammation is induced by treatments with Dextran Sodium Sulfate […]. In details, DSS is dissolved in drinking water (3 or 5% wt/vol) and the animals are free to drink this solution for 7-days. Water consumption is measured in the DSS-treated groups and compared to groups of naïve mice drinking water: no difference is observed for the volume of liquid consumed, between water and DSS-drinking mice. Mice are treated daily orally, with 200 μL of 1 to 5.10^9 colony forming units (cfu) of strains to be tested or bacterial milieu alone—i.e. L. lactis expressing the protein ZP 05614546.1 (Accession number changed to WP_005932151), its ortholog of strain M21/2 (SEQ ID NO: 4) or no protein-. […] Body weight and survival rate are measured daily after the induction of colitis (or right after the first gavage, in case of preventive treatment). DAI (disease activity index is also measured):
On day 7 after adding DSS to their drinking water, mice are sacrificed and colons are harvested for measure of several parameters of inflammation: bowel thickness and length, myeloperoxydase (MPO) activity, cytokine expression (IL-17A, IFN-γ, IL10, IL12p70 or other cytokines) can be measured. […]

NFκB signaling pathway = assay: NFκB luciferase reporter system in HEK 293T cells transfected with pCMV plasmids (Carma-1-dependent activation); format: cell-based, human; conditions: for NFκB signaling pathway inhibition (%): HEK 293T NFκB reporter, proteins cloned in 3× Flag (C-term) pCMV vector, table I
From the text: In order to further analyze the activity of the polypeptides of the invention, the inventors decided to transfect the protein-coding cDNA directly into mammalian epithelial cell model.
The sequence of the protein ZP05614546.1 (SEQ ID NO: 2) has been cloned in 3× Flag (C-term) pCMV vector.
In order to test the NFκB signaling pathway inhibiting activity from the orthologs of ZP05614546.1, the other protein sequences from FIG. 3 were also cloned in 3× Flag (C-term) pCMV vector and tested in the NFκB reporter system in human epithelial cells HEK 293T.
So as to better quantify the anti-inflammatory properties of ZP05614546.1 and orthologs, increasing quantity of pCMV plasmid (i.e. 50, 25 and 12.5 ng) containing SEQ ID NO: 2 and SEQ ID NO: 4 were used to transfected HEK293 cell line. Then, the evolution of NFκB signaling pathway expression was determined as previously. […] Accordingly, the SEQ ID NO: 4 from the strain M21/2 is 100% (2 fold) more efficient in inhibiting NFκB signaling pathway than the protein ZP05614546.1.
In order to further analyze the activity of the polypeptides of the invention, the inventors decided to clone into the previously described pCMV plasmid, the sequences corresponding to amino acids 23-135 of SEQ ID NO: 2 (Mut 1), 1-39/72-135 of SEQ ID NO: 2 (Mut 2), 1-99 of SEQ ID NO: 2 (Mut 3), 35-77 of SEQ ID NO: 2 (p35-′7′7) and . . . - . . . of SEQ ID NO: 2 from MAM from F. prausnitzii strain A2-165. The four constructs, Mut 1, Mut 3, p35-77 and p49-70 carry the peptide 1-5.

[2] = tested on: LPS-dependent NFκB activation; assay: LPS-dependent NFκB activation in HEK293T cells stably expressing TLR4, MD2 and CD14, NFκB luciferase reporter; format: cell-based; conditions: FIG. 2

“K G N T F L Q S T I N R T I G V L (KGNTFLQSTINRTIGVL; listed as Faecalibacterium prausnitzii) [SEQ ID NO: 47, peptide fragment of ZP05614546.1, region between positions 53 and 68]” was tested, and the “anti-inflammatory effect (IL-8 production as a marker of inflammation)” value [1] was “anti-inflammatory effect in a dose dependent manner”.

With “VKGNPIEKNNFGDYAMNALGIAAAVYNLGVAPTKNTVKETEVKFTV (VKGNPIEKNNFGDYAMNALGIAAAVYNLGVAPTKNTVKETEVKFTV; listed as Faecalibacterium prausnitzii) [SEQ ID NO: 48, peptide fragment of ZP05614546.1, region between positions 90 and 135]” the “anti-inflammatory effect (IL-8 production as a marker of inflammation)” value [1] was “anti-inflammatory effect in a dose dependent manner”.

B1: ZP05614546.1: conserved hypothetical protein of F. prausnitzii strain A2-165 (protein, listed as Faecalibacterium prausnitzii)
chain: MMMPANYSVIAENEMTYVNGGANFIDAIGAVTAPIWTLDNVKTFNTNIVTLVGNTFLQSTINRTIGVLFSGNTTWKEVGNIGKNLFGTNVKGNPIEKNNFGDYAMNALGIAAAVYNLGVAPTKNTVKETEVKFTV
B1 was tested, and the “reduction of colonic inflammation” value (colonic inflammation) was “significantly reduce colonic inflammation”, the “NFκB signaling pathway inhibition (%)” value (NFκB signaling pathway) was 58 ± 6% and the “inhibition of Carma-1-dependent NFκB activation” value (NFκB signaling pathway; HEK293T cells, NFκB luciferase reporter, FIG. 1) was “inhibits Carma-1-dependent NFκB activation”. The “inhibition of NFκB signaling pathway” value (NFκB signaling pathway; NFκB reporter system in human epithelial cells HEK 293T, protein cDNA transfected in pCMV vector) was “inhibits the NFκB signaling pathway in a dose-dependent manner” and the “inhibition of LPS-dependent NFκB activation” value [2] was “inhibits the LPS-dependent NFκB activation”.

B2: KLE1255: ortholog of ZP05614546.1 from strain KLE1255 (protein, listed as Faecalibacterium prausnitzii)
chain: MMMPANFSAVAENEMTYVVGGSLVDVLAPAMTTANWQNVSANVIKIVGNSFLAKYTNDVLAQLFDGNYVPGDVIGYSVKNLDKAYNKGYGTFGGNWGFAVGALNAGMQILGGLSAIYTLGSSSIGLETKSGTLPTL
In the case of B2, the “NFκB signaling pathway inhibition (%)” value (NFκB signaling pathway) is reported as 72 ± 1%.

B3: M21/2: ortholog of ZP05614546.1 from strain M21/2 (protein, listed as Faecalibacterium prausnitzii)
chain: MMMPANFSAVSENEMTYVMGGSVADYLAPAMGAAQWQNFHKNLITIVGNKYVQGFLDNTVGAMFSGTWTPGDGLTGFGGQFSTIWKKNYTDNVTDESTGAQKFGYGALGVVNSILNVAGNLAAIYNLGFGTAKNIVGEGVYKA
With B3 the “reduction of colonic inflammation” value (colonic inflammation) was “upper than the one observed with ZP 05614546.1 protein”, the “efficiency in inhibiting NFκB signaling pathway relative to protein ZP05614546.1” value (NFκB signaling pathway; 50, 25 and 12.5 ng pCMV plasmid, Carma-1-dependant NF-kB activation, HEK293T, FIG. 9) was 2 fold and the “NFκB signaling pathway inhibition (%)” value (NFκB signaling pathway) was 90 ± 3%.

B4: CNCM4573: ortholog of ZP05614546.1 from strain CNCM-4573 (protein, listed as Faecalibacterium prausnitzii)
chain: B3 chain with V23I, I44V, M63V, D72V
With B4 the “NFκB signaling pathway inhibition (%)” value (NFκB signaling pathway) was 89 ± 2%.

B5: SL3/3: ortholog of ZP05614546.1 from strain SL3/3 (protein, listed as Faecalibacterium prausnitzii)
chain: B3 chain with M63V, T83K, K87D, D95G
For B5, the “NFκB signaling pathway inhibition (%)” value (NFκB signaling pathway) was 86 ± 5%.

B6: L2-62: ortholog of ZP05614546.1 from strain L2-62 (protein, listed as Faecalibacterium prausnitzii)
chain: MMMPANFSAVNAEVVYGGAVADYLPSAWTAESVKRFNSNIITLVSNSFTSHLLKATLGTMFSGSWGSDGVTLFGDNGTFSGLYNVNRLPGGEAQTFGNKIMTTLGLASVVYTLGMKDAAVLTAKKVTNSNGQVWGDLPNNGGSGWVG
For B6, the “NFκB signaling pathway inhibition (%)” value (NFκB signaling pathway) was 34 ± 5%.
